Assay results as given in patent publication US20090054250.
Where two headings read alike, the source gives them in different places.

Tests used:
[1] = system: IgE immunoglobulin, P01854-1; conditions: saturating IgE
[2] = system: IgE immunoglobulin, P01854-1; conditions: n at position 18 is 2-aminopurine replacing C [18 (2-aminopurine replacing C)]; PAGE purified, saturating IgE; affinity stated comparable to unmodified aptamer; screening buffer 20 mM Tris pH 7.1, 140 mM NaCl, 5 mM KCl, 10 mM CaCl2, 10 mM …

Chain of IgE immunoglobulin, P01854-1 (P01854 other isoform, or with tags, fused parts or gaps): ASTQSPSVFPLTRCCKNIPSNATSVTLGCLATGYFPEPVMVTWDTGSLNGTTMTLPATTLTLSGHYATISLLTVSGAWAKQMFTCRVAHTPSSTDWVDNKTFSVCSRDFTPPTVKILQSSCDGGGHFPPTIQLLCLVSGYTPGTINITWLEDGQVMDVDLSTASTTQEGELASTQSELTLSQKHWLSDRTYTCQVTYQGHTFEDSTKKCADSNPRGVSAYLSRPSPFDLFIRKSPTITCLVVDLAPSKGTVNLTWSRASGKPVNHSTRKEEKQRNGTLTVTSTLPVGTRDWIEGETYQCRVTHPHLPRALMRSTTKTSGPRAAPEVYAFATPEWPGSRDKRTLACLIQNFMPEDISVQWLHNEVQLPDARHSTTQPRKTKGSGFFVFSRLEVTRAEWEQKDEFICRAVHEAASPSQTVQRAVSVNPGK

In the case of “GGGGCACGTTTATCCGTCCCTCCTAGTGGCGTGCCCC [IgE aptamer 3MI-18]”, the binding signal (fold fluorescence increase) ([1]; n at position 18 is 3-methylisoxanthopterin replacing C [18 (3-methylisoxanthopterin replacing C)]) is reported as 1.5.
Work on “GGGGCACGTTTATCCGTCCCTCCTAGTGGCGTGCCCC [IgE aptamer 6MAP-18]” yielded a binding signal (fold fluorescence increase) ([1]; n at position 18 is 6MAP replacing C [18 (6MAP replacing C)]) of 1.9.
Work on “GGGGCACGTTTATCCGTCCCTCCTAGTGGCGTGCCCC [IgE aptamer 2AP-18]” yielded a binding signal (fold fluorescence increase) [2] of 5.6.
